The supplement of paper PMC9112550, “Optimization of the antimicrobial peptide Bac7 by deep mutational scanning” (BMC Biology, 2022)

System: Escherichia coli TOP10
Experiment: shrunken log2 fold change of peptide-encoding DNA abundance (4.5 h post-induction vs induction); higher = less antimicrobial activity (less host growth inhibition)
Details: time post-induction: 4.5 h; library: site-saturation at positions 5, 18, 19, 20
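Further: peptides expressed intracellularly from a pBAD plasmid library in pooled LB shake-flask culture, induced with 0.3% L-arabinose, DNA abundance read by NGS, three biological replicates, DESeq2 with apeglm shrinkage.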

Sequence | shrunken log2 fold change
RRIRQRPPRLPRPRPRPWFGPRP | -0.352
RRIRQRPPRLPRPRPRPDKAPRP | 0.517
RRIRERPPRLPRPRPRPNMFPRP | -0.615
RRIRLRPPRLPRPRPRPLSQPRP | 0.00591
RRIRYRPPRLPRPRPRPRKVPRP | -0.208
RRIRMRPPRLPRPRPRPKYNPRP | -0.446
RRIRLRPPRLPRPRPRPWTYPRP | 0.0062
RRIRFRPPRLPRPRPRPDPWPRP | 0.0822
RRIRDRPPRLPRPRPRPICVPRP | -0.109
RRIRMRPPRLPRPRPRPDICPRP | -0.01
RRIRIRPPRLPRPRPRPEGLPRP | -0.185
RRIRTRPPRLPRPRPRPPDRPRP | 0.257
RRIRQRPPRLPRPRPRPKWGPRP | -0.0154
RRIRNRPPRLPRPRPRPSHHPRP | -0.421
RRIRQRPPRLPRPRPRPDSCPRP | 0.0169
RRIRHRPPRLPRPRPRPRTRPRP | 0.476
RRIRNRPPRLPRPRPRPIYAPRP | -0.71
RRIRIRPPRLPRPRPRPIRQPRP | 0.143
RRIRNRPPRLPRPRPRPVQAPRP | -0.00783
RRIRNRPPRLPRPRPRPTAQPRP | 0.136
RRIRVRPPRLPRPRPRPMCLPRP | -0.0244
RRIRHRPPRLPRPRPRPHVDPRP | 0.0392
RRIRHRPPRLPRPRPRPSLMPRP | 0.0202
RRIRMRPPRLPRPRPRPCIGPRP | 0.0503
RRIRCRPPRLPRPRPRPMKQPRP | -0.436

Sequence | shrunken log2 fold change
RRIRFRPPRLPRPRPRPWVPPRP | 0.0548
RRIRHRPPRLPRPRPRPKGIPRP | -0.092
RRIRWRPPRLPRPRPRPWGCPRP | 0.423
RRIRSRPPRLPRPRPRPAGKPRP | -0.284
RRIRWRPPRLPRPRPRPSPHPRP | -0.0688
RRIRTRPPRLPRPRPRPLFPPRP | -0.415
RRIRMRPPRLPRPRPRPIMFPRP | -0.103
RRIRFRPPRLPRPRPRPCNPPRP | -0.0333
RRIRVRPPRLPRPRPRPVIRPRP | -0.375
RRIRVRPPRLPRPRPRPMSWPRP | 0.0132
RRIRARPPRLPRPRPRPVVQPRP | 0.511
RRIRERPPRLPRPRPRPVASPRP | -0.0471
RRIRSRPPRLPRPRPRPIQRPRP | 0.0978
RRIRERPPRLPRPRPRPHIGPRP | 0.00581
RRIRERPPRLPRPRPRPDLNPRP | -0.322
RRIRARPPRLPRPRPRPAMIPRP | 0.0684
RRIRIRPPRLPRPRPRPSDLPRP | -0.0735
RRIRGRPPRLPRPRPRPQRNPRP | 0.473
RRIRERPPRLPRPRPRPYVLPRP | -0.125
RRIRKRPPRLPRPRPRPYNYPRP | -0.898
RRIRARPPRLPRPRPRPVFKPRP | 0.115
RRIRTRPPRLPRPRPRPSPGPRP | 0.103
RRIRTRPPRLPRPRPRPGQTPRP | -0.0115
RRIRYRPPRLPRPRPRPEWRPRP | 0.172
RRIRTRPPRLPRPRPRPRDRPRP | 0.19

Sequence | shrunken log2 fold change
RRIRNRPPRLPRPRPRPEAHPRP | -0.0208
RRIRNRPPRLPRPRPRPRPWPRP | 0.116
RRIRLRPPRLPRPRPRPQCQPRP | -0.399
RRIRYRPPRLPRPRPRPSLTPRP | -0.628
RRIRYRPPRLPRPRPRPQQRPRP | -0.261
RRIRKRPPRLPRPRPRPNCNPRP | 0.00173
RRIRARPPRLPRPRPRPEMCPRP | 1.17
RRIRCRPPRLPRPRPRPVGPPRP | 0.326
RRIRDRPPRLPRPRPRPPANPRP | 0.0989
RRIRGRPPRLPRPRPRPPNFPRP | 0.0696
RRIRHRPPRLPRPRPRPISCPRP | -0.0318
RRIRNRPPRLPRPRPRPEHIPRP | -0.313
RRIRHRPPRLPRPRPRPRQFPRP | -0.0158
RRIRKRPPRLPRPRPRPAWGPRP | 0.694
RRIRCRPPRLPRPRPRPPVHPRP | -0.112
RRIRRRPPRLPRPRPRPNPHPRP | 0.534
RRIRNRPPRLPRPRPRPFHMPRP | -0.458
RRIRKRPPRLPRPRPRPKRVPRP | 0.717
RRIRPRPPRLPRPRPRPWKSPRP | 0.0643
RRIRSRPPRLPRPRPRPVDRPRP | 0.0715
RRIRWRPPRLPRPRPRPVYWPRP | 0.14
RRIRWRPPRLPRPRPRPGDLPRP | 0.0106
RRIRQRPPRLPRPRPRPRNRPRP | 0.0911
RRIRKRPPRLPRPRPRPINNPRP | -0.298
RRIRTRPPRLPRPRPRPGPCPRP | 0.219

Sequence | shrunken log2 fold change
RRIRCRPPRLPRPRPRPNYKPRP | -0.831
RRIRWRPPRLPRPRPRPRPQPRP | 0.588
RRIRIRPPRLPRPRPRPHSVPRP | -0.0376
RRIRNRPPRLPRPRPRPCLTPRP | 0.0253
RRIRQRPPRLPRPRPRPPWTPRP | 0.0238
RRIRFRPPRLPRPRPRPDDKPRP | -0.059
RRIRKRPPRLPRPRPRPDHHPRP | -0.37
RRIRNRPPRLPRPRPRPCPGPRP | 0.00341
RRIRVRPPRLPRPRPRPFYFPRP | -0.493
RRIRTRPPRLPRPRPRPHHTPRP | -0.474
RRIRRRPPRLPRPRPRPFKDPRP | -0.11
RRIRCRPPRLPRPRPRPSMGPRP | -0.169
RRIRNRPPRLPRPRPRPNMYPRP | -0.392
RRIRSRPPRLPRPRPRPRQQPRP | 0.0352
RRIRMRPPRLPRPRPRPWSQPRP | -0.189
RRIRQRPPRLPRPRPRPDRQPRP | 0.0104
RRIRKRPPRLPRPRPRPECIPRP | 0.0177
RRIRERPPRLPRPRPRPRVQPRP | 0.00573
RRIRMRPPRLPRPRPRPPEFPRP | 1.05
RRIRPRPPRLPRPRPRPECCPRP | 0.526
RRIRMRPPRLPRPRPRPEHLPRP | 0.417
RRIRERPPRLPRPRPRPVRVPRP | 0.247
RRIRCRPPRLPRPRPRPAFCPRP | 0.172
RRIRHRPPRLPRPRPRPGRVPRP | -0.129
RRIRIRPPRLPRPRPRPRWFPRP | 0.555

Sequence | shrunken log2 fold change
RRIRPRPPRLPRPRPRPCNQPRP | -0.0514
RRIRLRPPRLPRPRPRPEGAPRP | 0.552
RRIRVRPPRLPRPRPRPSNRPRP | -0.147
RRIRPRPPRLPRPRPRPECTPRP | 0.0119
RRIRFRPPRLPRPRPRPHCEPRP | -0.0995
RRIRYRPPRLPRPRPRPRFLPRP | -0.42
RRIRYRPPRLPRPRPRPVGDPRP | -0.0659
RRIRIRPPRLPRPRPRPLHFPRP | -0.511
RRIRMRPPRLPRPRPRPEICPRP | 0.00534
RRIRCRPPRLPRPRPRPFHVPRP | -0.893
RRIRYRPPRLPRPRPRPPEFPRP | 0.00678
RRIRVRPPRLPRPRPRPQDQPRP | 0.225
RRIRHRPPRLPRPRPRPWAFPRP | 0.0477
RRIRRRPPRLPRPRPRPQDMPRP | 0.0973
RRIRIRPPRLPRPRPRPGKIPRP | -0.0443
RRIRYRPPRLPRPRPRPPVIPRP | -0.0623
RRIRVRPPRLPRPRPRPIVMPRP | -0.107
RRIRKRPPRLPRPRPRPAEYPRP | 0.345
RRIRNRPPRLPRPRPRPAFFPRP | 0.0459
RRIRNRPPRLPRPRPRPNHGPRP | -0.0113
RRIRWRPPRLPRPRPRPYENPRP | -0.19
RRIRERPPRLPRPRPRPKRDPRP | 0.024
RRIRKRPPRLPRPRPRPEPWPRP | 0.895
RRIRDRPPRLPRPRPRPVVWPRP | 0.902
RRIRSRPPRLPRPRPRPPTIPRP | 0.0521
